Measurements published in the DeepSol protein solubility set.

test: soluble on expression in E. coli; label from the status in PepcDB or PDB records

Soluble on expression in E. coli, not soluble:
MCETCLIVIMDSSHDFSFADTFALQVATWFSDVFAQPTVVQRQAWAAISAGENALVVAPTGSGKTLAAFLWALNELVQGSGQTALLSRQAAGSAEVEASRAKGVKVVYISPLKALGVDVENNLRAPLTGINQVAARLGIDQSDITVGVRSGDTPASERSKQVRNPPDILITTPESLYLMLTSKARSILTTVDTVIVDEIHAMAGTKRGVHLALSLERLEHLAAQPVQRIGLSATVRPLDVVARFLGGDRPVEVINPPLEKKWQLAVHVPVDDMSDLPTPEPVSEIGEATIDDPLGLTTQPEGFAESALPAQGSMWTFIEQDVFDEVMEHRSTLVFVNSRRTAERLTSRLNELYAQRFQPEALSPALRRPPAQLMKSIDIAGEATAIIARAHHGSVSKDERALTEKMLKQGELRAVVSTSSLELGIDMGAVDKVIQVESPPSVASGLQRVGRAGHVVGAVSHGSFYPKHRADLVQTAVTVGRMTEGLIEELHVPTNALDVLVQHTVAAVAMDDLDVEDWYATVVRAYPYRDLPREAFDAAIDLTAGVYPSTDFAELRPKVIYDRITGTLSARPGAQRTAVINGGTIPDRGMFGVFLVGSGESGAPRRVGELDEEMVYESRVGDVFTLGASSWRIEEINKDQVLVTPAPGHTGRLPFWTGDQAGRPAELGKALGAFRRTLVADPSVVEGMGLDVRARSNVVAFIQQQQESTGVVPDEVTLVLERFRDELGDWRVVLHSPYGRGVNAAWALVAGAAFSQRTGMDAQPVASDDGIVLRVPESDAEPGADLFEIDPDTVEELVAQQVGNSALFAARFRECAARALLLPSRTPGKRAPLWQQRQRAAQLLDVARKYPSFPIVLETVRECLHDVYDLDALVELAAALKLRKVRIAEVTTQQP, MCGLLGMLSSTGQASKYAAAIESALPCMHHRGPDEAGTWHDDHAVFGFNRLSIIDLEHSHQPLRWGPEGEPDRYAMTFNGEIYNYVELRKKLQDLGYTFNTSGDGETIAVGFHHWGADVVLHLRGMFGIAIWDTKEQRLFLARDQFGIKPLYFATTEAGTVFASEKKCILGMADAIGLDLGLDQRAIEHYIDLQYVPEPESLHQHIRRLESGCFAFVSVGGNVEQTRYFRPQFPAQEF, MCIGVPVQVISPGQWFAKCRDRHGELIDVDIRLVAPPLAGAWLLTFGGAARREMDEAEAAEVLAALDSLEQAMLTQSDPLTGFADLLSRTPELPEHLKK, MCIKGCKRRIHPTRLLMLIRTEAPADILVVDQLLKNVFATEAEADLVMALRENGQRTLSLVACDDEGEIVGHVMFSPVTLEGEDLNWQGLAPLAVKEEYRRQGIGAELVKEGLSSLGELGYPACVVLGDPAYYSRFGFEDAARYSLRCAWDVPQGAFQVVALWERELDGRCGVIEYSQEFAAL, MCMDEIKKWKNVKAKKITETLNKRHFKASYVETLEEAKEKLISMIEEGSSVAIGGSTTLSQMGMVDVLRNGNYKFFDRYQNLPFDPDIVEIHRKSLTADYLITGTNAITENGELVNTDCTGNRVAPMIFGPKNVIIVAGINKIVENIDAALKRIREIAPMNSKRIKHETPCVETGFCVDCDCKKRICNFTTIIHNGIKFEGRIKIIIIADELGYLEHHHHHH, MCSYARATDANGESFIYCRTWQGQFFRFKLEDRVYDYVTTFAKSDACLATDPDDPTKIYCALNEYNKITCIDLTKNPEDSGFETDVCGIQGPGAYQDGHVSVARLNNPQQILSMHDPETGEKVIYICDANNNCVRMYNMETKLMSTVAGIGGKSGYAAGNPTVSRMNRPYGICITPENDIYVADAGNKVIMKLAFMLEHHHHHH, MDADSSNSTVTPGRLPDGLSSCPCFYLGKKLMNLSANAQATLLLTSDFSRAAASKYKPLSNSEWGKFALWLKHQRISPAELLVPQPQEKLTGWSDPRISQERILGLLARGHSLALAVDKWQRAGLWILTRGDADYPVRLKNRLRTDAPPVLFGCGNKALLQAEGMAIVGSRDAPTDDLRYTQQLAAKLAQQGICVISGGARGIDECAMASALEAGGTAVGVLADSLLKTSTLVKWREGLIAGNLVLISPFYPEVRFTVGNAMARNKYIYCLAESAMVVRAGMTGGTITGAMEALKHQWLPVQVKPNQDMQSANSRLVENGASWSAEQAENVTIRLPDVPGLMYDRALRNAQPELFSLHEDDANYAVMPAYTPVDFYQLFVAELAILAKESISIERLASCTGLTIEQISVWLNRAEEEGRVIRLGEGHYQFR, MDASKSLPIRKHTTLLNRLPETRFATQLDKAKANWIVFAEYLSPRHFEDIDFFTGFYNPVLETWKVGQYEVALMAGELTSQHETILKSLNIDYASLNEVPDLSAPG, MDAYLDYISGIWSKIDKKFHDQDISAKVAILQLVARPYYYWIQENPAQEKPVVEESQPRKQDNLREITSKYGDALQVDSDTVKIVKRLNTDEFNKLKEDLRQLGFLYDAQLRGFKKKQ, MDCYVGATTGALKGAILKENTFQNLNEIKSLDPKSDEITSMIWNDEQQTEILIARVNRDLQLLGIEENELVSILTVTGGTGPIKGLHKADEKIVTCVESGELQIWNDKSEILSEWKTGPGVAVMRGSTEKPEIVTGGMKNLLKTWNLETGQQTWSAKNVPPDMLGLEIPIMITDARFIPGQNTILEATKLHEMRLYDPRAQRRPVKKIPFMENPIMCTSLTYKTNQILAANSIGEMGLFDLRSKVHPMCKFKGQAGSIRSITAHPTLPLAASVGIDRFLRVHDLQSRKLIHKIYCKTRLNRVLLRDNLSILNDKKPASKKEINEDETEYGNMTKDGYRSENEDDEDDDDVIEEDDVWGVMEPVKRAKKSSDDDVEEIQITSETIAVPSKNSQKLKRKNVLEADEIKEEEGDSDEAEVKKTTKKVLKKKKRV, MDDLTIEILTDDADYDLQRFDCGEEALNLFLTTHLVRQHRNKILRAYILCRNTPERQVLGYYTLCGSCFERAALPSKSKQKKIPYKNIPSVTLGRLAIDRSLQGQGWGATLVAHAMNVVWSASLAVGIHGLFVEALNEKAHTFYKSLGFIPLVGENENALFFPTKSIELLFTQSD, MDEIPADIRNEIIYYYRLSRKVLLGLYNKSIIFVLPSIVEGMPSPPLEAMACGCAVVVTDNGGVNEYIKDGLNGIVCPVRDSYCLYQKVILLINNKALREQMIQDGLETAKEFSYDNMNKNFIRLIEEVQRRKSLEHHHHHH, MDEKKCWLVVCVQSNREKKTYERLSALGFESFLPLQEETRRWSDRSKKVQRVVIPMVVFARIAPSERISVLRLPSVSRFMVLRGESAPAIIPDAQMERFRFMLDYSEEAVEMCSERIQPGEQVKVIKGPLTGLTGELITMDGKSKVAVRINMLGAAMVEVPVGFVERI, MDENTRNLIKKVERSVFAGNRAAAAKELGEIGDFDAVPVLLKALEDSSSKVKAAASEALGEINDPDAVPCLMKMLDYPESYVKKAAIIALGKIGTQEAVSGIVKGFRDPDKLIRKESVKALMRIGSPEAVSGLTATFTCPDSPLKRISITALGKINTYEAACGLVKALEDPDNRVRQQAVETLGKRGISDVLEELMELLKDSRQPVQEAASEALCKIIGGSESVPVLVKALGASDRKVRKASIEALGKAGNSEAVSALLKELDDDDWYLRSRAADVLADIASPEAALGLVKALDLHDAPVRKLIVSALGKIGSPETIEGLVKALDDPDNSIREAATLGLGKTGKVEAVPGLLRALHDPKNTVQEAAATSLGDMKAREAVPEFLRILEDPDSLIHKSVIFSLEKIGTPEAVAGLSRALNNPDAMVRKAAAKSLEKIKKSGLPLEKAKNIEISGFNISE

Soluble on expression in E. coli, soluble:
MAYNSNSNNNNNNIVVVFDFDKTIIDVDSDNWVIDELGFTDLFNQLLPTMPWNTLMDRMMKELHDQGKTIEEIKQVLRTIPIHPRVVPAIKSAHDLGCELRIVSDANMFFIETIVEHLGISELFSEINSNPGYVDERGTLKISPYHDFTKSPHSCSCGTCPPNMCKGLIIERIQQSLAKEGKKKMIYLGDGAGDYCPSLKLNTEDYVMPRKNFPVWDLISQNPMLIKAAIREWTDGQSMEMILIGTIEEIRLEEEKEKMLTSAENNCKMQTISIGINNVHHEPILPRALRVSQSS, MCAKATMEEFEALLNESLQIDTPQEGSVVKGKVIAVEAGQAIIDVGYKMEGRVDLKEFADMSGSVDISVGDEVEVYLDRVENARGEAVISRDKAKREEAWDRLEKAYANETRVEGAIFGRVKGGFTVDLGGAVAFLPGSQVDVRPVRDAGPLMGMKQPFQILKMDRRRGNIVVSRRAILEESRAEQRAEVISNLFEGQTVDGVVKNITEYGAFVDLGGVDGLLHVTDMAWRRVNHPSEILSIGETVKVQVIKINKETHRISLGMKQLQSDPWDAVEKAYPIGSVHKGRVTNITDYGAFVELEAGVEGLVHVSEMSWTKKNVHPGKIVSTSQEVDVMVLEIDSAKRRVSLGLKQTMRNPWEVFAETHPVGTPIEGEVKNITEFGLFVGLEHDIDGMVHLSDLSWDQRGEEAIQNYRKGDVVKAVVTEVDTDKERISLSIKALGDDTFSEAIEGVKRGSVITVTVTAIEDGGIEVEYNSMKSFIRRSDLSRDRADQRPERFQVGDKVDVRVTNVDAKTRRLGLSIKAREIAEEKEAVEQYGSSDSGASLGDILGAALRNSDRGLEHHHHHH, MCMDSNVSWMIREKIERTIKNLEKNNIEAYNVKNSKQLIELIDKLIPEGETVAVGGSMTLFETGIIDHIRSKNYNFLDRYKEGLSKEDIKDVFRKSFFADSYIVSTNALTENGELYNVDGNGNRVAAMLFGPDKVIVIAGINKIVKDVDEAIKRNKFVSAPINAKRLNKATPTKVGYCMDCKSQDRICNEYTLIKRQGVKGRIKVIIVEEELGYLEHHHHHH, MCNLTIHNIENYENDPQLRLIPWILWENLFQHFISANELSLMTLSYKEAIHIFLPGTKNMEQVRQLLCLYYAHYNRNAKQLWSDAHKKGIKSEVICFVAAITGCSSALDTLCLLLTSDEIVKVIQAENYQAFRLAAENGHLHVLNRLCELAPTEIMAMIQAENYHAFRLAAENGHLHVLNRLCELAPTEATAMIQAENYYAFRWAAVGRGHHNVINFLLDCPVMLAYAEIHEFEYGEKYVNPFIARHVNRLKEMHDAFKLSNPDGVFDLVTKSECLQGFYMLRNLIRRNDEVLLDDIRFLLSIPGIKALAPTATIPGDANELLRLALRLGNQGACALLLSIPSVLALTKANNYYINETGGRLDLRAVALEHHHHHH, MCSHYQALKDQERMRKYFAAHPSAEVPADMWPRYMGAFIRRPLEWDSGDEAVPEREAATGRWGMIPPGTRPEKLAEASKKNTSNARSETAHQLWTFRNAWAKAQHCIIPADAIYEPDWRSGKAVPTRFTRADGAPLGIAGLWDRYRNAAGEWIDSYTMLTINADDDPLFRDYHQAGKEKRMVVILPDGAYGDWLTAPATDTRDFLLPYPADRLVAAAVKLEHHHHHH, MCTVVIDRRPGDPWPLLVAANRDELADRPWLPPARHWPSRPEVIAGLDELAGGTWMGLNDWGVVACVLNREGTLGPLAGRRSRGELVLDALDMADARDAAEALADIDPRAYRPFNLIVADNRDAFWIRHADAEGRAAVEVHPLAEGLTLMTAHDPDDPLDARARAYLPRFRAAPRPDPQLRDGWAPWTHLLGSRDHAVDDGPTAAMCFSLAGGFGTSSSSLIALPAMERIGVDPLYLFAPAPPDQTDYRPVLEHHHHHH, MDCCEERGVARHKGLSQVGTPGCPRWSQAVSCRCSAYREAAVTAVQMPLTPGYGETPLPHDELAALLPEVVEVLDKPITRADVYDLEQGLQDQVFDLLMPTAVEGSLSLDELLSDHFVRDLHARMFGPV
